Laboratory results published in US20090202549A1 (published 2009).
Residue numbers refer to the chain shown, from its start.

Legend:
Assay in all cases: capture assay, relative binding affinity of p40 mAb to p40 muteins (FIG. 4)
[1] = target: T1, human p40 single mutant S43R (human, UniProt P29460 23-328)
T1 construct: transiently expressed in HEK293E cells, supernatant used
T1 sequence: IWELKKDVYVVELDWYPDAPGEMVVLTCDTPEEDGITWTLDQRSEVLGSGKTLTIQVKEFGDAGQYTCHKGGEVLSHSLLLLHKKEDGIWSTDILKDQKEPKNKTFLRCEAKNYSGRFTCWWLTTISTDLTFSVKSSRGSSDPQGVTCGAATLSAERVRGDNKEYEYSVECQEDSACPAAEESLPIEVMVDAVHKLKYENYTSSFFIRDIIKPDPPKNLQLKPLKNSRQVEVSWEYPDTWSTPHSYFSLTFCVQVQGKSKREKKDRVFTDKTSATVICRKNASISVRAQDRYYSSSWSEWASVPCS
Experimental: (§1) In brief, MSD high bind plates (Meso Scale Discovery, MD) were coated with 5 μl of a capture monoclonal antibody (5 μg/ml) at room temperature for 1 hour. […] One-hundred and fifty (150) μl of 5% MSD Blocker A buffer was added to each well and incubated for 1 hr at room temperature. Plates were washed three times with 0.1 M HEPES buffer (pH 7.4). These protein-charged ELISA plates were incubated with 25 μl of different transiently expressed p40 mutant supernatants (1:10 dilution with 0.1 M HEPES buffer, pH 7.4) for 1 hr at room temperature. The plates were washed three times with 0.1 M HEPES buffer (pH 7.4). Twenty-five (25) μl of different concentrations of MSD Sulfo-TAG labeled p40 mAb, ranging from 0 to 20 μg/ml, were dispensed to micro-wells. After incubation for 2 hrs shaking at room temperature, plates were washed 3 times with 0.1 M HEPES buffer (pH 7.4). One hundred and fifty (150) μl of diluted MSD Read Buffer T was dispensed into each well and the plates were analyzed with a SECTOR imager (MSD).
(§2) The relative binding affinity of p40 mAb to different mutant proteins was further analyzed by a capture assay. […] The other mutations, M23T, L40T and S43R, in the interface, each reduced binding by approximately 40%. E45A reduced binding by about 70%.

[2] = target: T2, human p40 single mutant E45A (human, UniProt P29460 23-328)
T2 construct: transiently expressed in HEK293E cells, supernatant used
T2 sequence: T1 sequence with R43S, E45A
Experimental: as §1, §2

[3] = target: T3, human p40 single mutant L40T (human, UniProt P29460 23-328)
T3 construct: transiently expressed in HEK293E cells, supernatant used
T3 sequence: T1 sequence with L40T, R43S
Experimental: as §1, §2

[4] = target: T4, human p40 single mutant M23T (human, UniProt P29460 23-328)
T4 construct: transiently expressed in HEK293E cells, supernatant used
T4 sequence: T1 sequence with M23T, R43S
Experimental: as §1, §2

B1: p40 mAb (fully human monoclonal antibody directed against the p40 subunit of human IL-12 and IL-23) (antibody, V domains shown)
VH: EVQLVQSGAEVKKPGESLKISCKGSGYSFTTYWLGWVRQMPGKGLDWIGIMSPVDSDIRYSPSFQGQVTMSVDKSITTAYLQWNSLKASDTAMYYCARRRPGQGYFDFWGQGTLVTVSS
VL: DIQMTQSPSSLSASVGDRVTITCRASQGISSWLAWYQQKPEKAPKSLIYAASSLQSGVPSRFSGSGSGTDFTLTISSLQPEDFATYYCQQYNIYPYTFGQGTKLEIKR
notes: Fully human IgG made in a mammalian cell line; also called IL-12 p40 antibody; IL-12p40 antibody
reduction of binding (relative binding affinity) [1]: ~40% | reduction of binding (relative binding affinity) [2]: ~70% | reduction of binding (relative binding affinity) [3]: ~40% | reduction of binding (relative binding affinity) [4]: ~40%
